Reference: the DeepSol protein solubility set

Experiment: soluble on expression in E. coli; label from the status in PepcDB or PDB records
With “MSLNTIYEPSSICMIRTPLLSVEFFNLFLNTEQIKYSDLQLNAQMKESILTTTFNLYCTLQEINFDGDNKKVRDAKESLLKYLIRMSTRPTPFGLLSGINLGHFVNEPTRLKVGNSIQKYVKVDGEWLYKLVSYIESIDEYYQNLKVIWNSKAHIINDRIYLNEQSAIYLNNNKDTSFSIKNSELLVFIKTTVTNNNITFSNLAEKINQEFEINDITKVKVYIHNLVSKEIIYSTIRPPLSYSDNLNYILNKLSLHNDDFVKKIREIQKLILAYEKTEIGFGEELYKDIIHHMKALFKCKNYLQIDTKIDMINNYLHQDIATNISEAAYLLWLLSRNNIGFTDLKVLHNRFIEKYGFEQLVNIKDLISDITGFGTTIFQEEETDGNNIVMLKQKFLHALRNNDEIVINEKDVESLINDNEINHYHAPMSADVYAELYLGRFYNQYNELIVISPLTASFNAGATFGRFHHLIDTETLAKLEHEKGHYYQKMICDDNVEMISINNIPKYPRNHNVLTNHDSYEYSLNLGSSNSYSKYELTLDDIYVGATFNKLYLYSSQLNKRVIFESNNMYNFLKECNLYRLLREISMESVKCIEPMNDVSIDSFSYSPRIRYKNVILKPAYWKINEMVLPLPKNEEWDQQFLKYQEQFNIPNIVNLVYGDNKLLLNLSLANHRYLLMKEYKKHKRVRLVESFLPQSKNDHVYEIVTPIYKKSSYRGEGHHHHHH” the “soluble on expression in E. coli” value was “not soluble”. In the case of “MSLNTSRKERSVSTFSIVGYDPKTDELGIAVQSKFLGVGAIVPWAKAGVGAIATQSYANTSYGSKGLDLLARGKTAEETLALLINEDADRHLRQVGIVDAKGRAASFTGQGCYEWAGSMTGHCFAVQGNLLVSEETVKTMAQKFVQATGSLAERLLLTLEAGQCAGGDRRGKQSAALLIVKEKGGYGGFNDRLIDLRVDDHPEPIQELKRIFELQQLYFAKPKEQDQLPLTDDRISIIKSSLHSLGYLSLTQHWRDALQQFIATENLEGRMGTGTQTIDRVVFSFLQKKAKEEGHHHHHH”, the “soluble on expression in E. coli” value is reported as “soluble”. For “MSLNVVKFGGSSLASAPQLQKVLQIVKEEPRRTFVVVSAPGKRTPQDIKVTDLLIQYYQRYLNNEEIESTISAIIRRYEDLFDELHLDKAVLADIAISIRQLATLPKENNAFLFDYFLASGEDNNAKVVASFFKQNGLDARYISPKELGLLVTPEPGNARILPKALEKISVYRETQQILVIPGFFGYTEAGEICTFSRGGSDITGSIVAAGVQADLYENFTDVDGIYVAHPGIIEQPQTIQELTYREMRELAYAGFAVLHDEALMPAYRANIPVVIKNTNNPHHPGTLITTSRKVKHAPVVGIASDQGFASIYISKYLMNRELGFGRRLLEVLEKLALSYEHMPSGIDDITIVLREDQLTTEIENRLMAQLQEVLAPDELRITHHLSMIMIVGEGMRQRIGVTAESTMALAKEKINLEMINQGSSEVSIMFGIKKEQEEKAIKALYRTFFHDEGHHHHHH”, the “soluble on expression in E. coli” value was “soluble”. For “MSLNWMELSIVVNHEVEYDVTEILESYGSNGVVIEDSNILEEQPVDKFGEIYDLNPEDYPEKGVRLKAYFNEFTYNENLKSNINYEILSLQQIDKTIYDYQEKLIAEVDWENEWKNYFHPFRASKQFTIVPSWESYVKENDNELCIELDPGMAFGTGDHPTTSMCLKAIETFVKPTDSVIDVGTGSGILSIASHLLGVQRIKALDIDEMAVNVAKENFKKNHCDDAIEAVPGNLLKNENEKFNIVIANILAHIIEEMIEDTYNTLIEDGYFITSGIIEEKYQDIESQMKRIGFKIISVEHDNGWVCIVGQKVSEGHHHHHH”, the “soluble on expression in E. coli” value was “soluble”. For “MSLNYQMITTDDALASLCEAVRAFPAIALDTEFVRTRTYYPQLGLIQLFDGEHLALIDPLGITDWSPLKAILRDPSITKFLHAGSEDLEVFLNVFGELPQPLIDTQILAAFCGRPMSWGFASMVEEYSGVTLGKSESRTDWLARPLTERQCEYAAADVWYLLPITAKLMVETEASGWLPAALDECRLMQMRRQEVVAPEDAWRDITNAWQLRTRQLACLQLLADWRLRKARERDLAVNFVVREEHLWSVARYMPGSLGELDSLGLSGSEIRFHGKTLLALVEKAQTLPEDALPQPMLNLMDMPGYRKAFKAIKSLITDVSETHKISAELLASRRQINQLLNWHWKLKPQNNLPELISGWRGELMAEALHNLLQEYPQEGGSHHHHHH”, the “soluble on expression in E. coli” value was “soluble”. For “MSLNYSNDIFEEDTFNPGNDNLFLKTASVGTGEYFILPRLCAHLAKNAPKFVLKISSLSEYLSLEYLLMSELDFAIGPGFVETGNNIIRELLFEEEAVCIMHKSHPLANQELTQDMYLQAEHVDIQFSYMGNENILYKALQGYHQRNIKVIVPNIISALEVVYHTNFITTVPRTLAVTFKDRYQIELHPFPFPKKTFLVNFYYHKRLSNHKPLQWVLDVIKKYCCVNHEGHHHHHH”, the “soluble on expression in E. coli” value was “not soluble”. With “MSLPCNKHPFYQQLEQQLDTTRTEGLYKNERVITSAQQANIAVADGSRVINFCANNYLGLANHPKLIAAAKAGMDSHGFGMASVRFICGTQDIHKELEHKLASFLGMEDAILYSSCFDANGGLFETLLGPEDAIISDALNHASIIDGVRLCKAKRYRYANNDMTELEAQLKQAKAEGARHIMIATDGVFSMDGVIANLKRVCDLADEYQALVMVDDSHAVGVIGANGRGTHEYCEVMDRVDIITGTLGKALGGASGGYTAGRKELVEWLRQRSRPYLFSNSLAPAIVAASIEVLSLLEEGGALRDRLWANARLFREKMSAAGFTLAGADHAIIPVMLGEAKLAQDFANALLKEGIYVTGFFFPVVPKGQARIRTQMSAGHTTEQVERAIEAFVRIGKQLNVIA” the “soluble on expression in E. coli” value was “not soluble”. With “MSLPEKLPYLVELSPGRRNHFAYYNYHTYEDGSDSRDKPKLYRLQLSVTEVGTEKLDDNSIQLFGPGIQPHHCDLTNMDGVVTVTPRSMDAETYVEGQRISETTMLQSGMKVQFGASHVFKFVDPSQDHALAKRSVDGGLMVKGPRHKPGIVQETTFDLGGDIHSGTALPTSKSTTRLDSDRVSSASSTAERGMVKPMIRVEQQPDYRRQESRTQDASGPELILPASIEFRESSEDSFLSAIINYTNSSTVHFKLSPTYVLYMACRYVLSNQYRPDISPTERTHKVIAVVNKMVSMMEGVIQKQKNIAGALAFWMANASELLNFIKQDRDLSRITLDAQDVLAHLVQMAFKYLVHCLQSELNNYMPAFLDDPEENSLQRPKIDDVLHTLTGAMSLLRRCRVNAALTIQLFSQLFHFINMWLFNRLVTDPDSGLCSHYWGAIIRQQLGHIEAWAEKQGLELAADCHLSRIVQATTLLTMDKYAPDDIPNINSTCFKLNSLQLQALLQNYHCAPDEPFIPTDLIENVVTVAENTADELARSDGREVQLEEDPDLQLPFLLPEDGYSCDVVRNIPNGLQEFLDPLCQRGFCRLIPHTRSPGTWTIYFEGADYESHLLRENTELAQPLRKEPEIITVTLKKQNGMGLSIVAAKGAGQDKLGIYVKSVVKGGAADVDGRLAAGDQLLSVDGRSLVGLSQERAAELMTRTSSVVTLEVAKQGAIYHGLATLLNQPSPMMQREGHHHHHH” the “soluble on expression in E. coli” value was “soluble”. For “MSLQAELVIKNGLVILETGEVITDVAVQGGKIVAIGQDLSGERVIDATGLVVSPGMVDAHVHITDPGGGYRDEWEGYVTGTAACAKGGVTTFMEMPLNQIPATVDKTSLEIKYKAGENKLKVDVGSFGGVVPTNLADGIQELDEGGVSGYKCFLGTCGDRSIEGDFQNVDDYSLYEGMKQVAKTGKVLAIHAENAPITDKLGAVAYQNGETTLAAYVATRPVFTEVEAIQKAILFAKETGCRIHICHVACQEGVEEVLKAQAEGVDVTCETCTHYLYFTTDELDAIGPVVKCSPPIRDADQQAALWNHVQTGGIAFVTSDHSPCTPDLKDTTNAFEAWGGISGVQNNVDVLFDEAVQKRGLSLKQFADMIAANPADRYHLAQKGRISIGKDADFVLIKPNAPYILKAEDLEYRNKISPYIGREIGAQVIQTILRGETIYAQETGVTEAFNGVFIKNEGHHHHHH”, the “soluble on expression in E. coli” value was “soluble”. With “MSLQAHCEEFRVCAMCRVLRVNRSGYYAWLCSPNSERAKEDDRLLGLIKHHWLASGSVYGHRKITTDLRDLGERCSRHRVHRLMRTEGLRAQVGYGRKPRFHGGMQCKAAANLLDRQFDVTEPDTAWASDFTFIRTHEGWMYLAVVIDLFSRQVVGWAMRDRADTELVVQAVLSAVWRRKPNTGCLVHSDQGSVYTSDDWRSFLASHGLVCSMSRRGNCHDNAPVESFFGLLKRERIRRRTYPTKDAARAEVFDYIEMFYNPNRRHGSTGDLSPVEFERRYAQRGSEGHHHHHH” the “soluble on expression in E. coli” value was “not soluble”.
